Positions count from the first letter of the chain named.
B1: nCoVmab1 (antibody, V domains shown)
VH: QVQLVESGGGLVQPGGSLRLSCAASGFTVSSNYMSWVRQAPGKGLEWVSVIYSGGSTYYADSVKGRFTISRDNSKNTLYLQMNSLRAEDTAVYYCARGDGSDDYYYGMDVWGQGTTVTVSS
VL: QSVVTQPPSVSGAQGQRVFISCTGNGANIGMGYDVHWYQQLPGRAPKLLIFGNTNRPSGVPDRFSASRSGTSASLAITGLQTADEADYYCQSYDGNLRASVFGGGTKLTVL
notes: also called nCoVFab1 in IgG1 format; source: 293F cells, purified (Protein A resin)
B2: nCoVmab2 (antibody, V domains shown)
VH: B1 VH with Q1E, E6Q, L11V, G16R
VL: QAVLTQPSSVSGAPGQRVTISCTGSSSNVGAGYDVHWYQQLPGTAPKLLIYGNSNRPSGVPDRFSGSKSGTSASLAITGLQAEDEADYYCQSYDSSLSGSVFGGGTKLTVL
notes: also called nCoVFab2 in IgG1 format; source: 293F cells, purified (Protein A resin)

Biological target: SARS-CoV-2 RBD-Fc fusion protein (SARS-CoV-2, UniProt P0DTC2)
Assay: ELISA
Conditions: both partners purified

Binder	fold change in EC50 compared to wild type
B1	1 fold
B2	1 fold

Reference: PMC8352940 (Nature Communications, 2021)
